# According to patent publication US20140370037A1 (published 2014):
# T1: human DLL3 antigen (human, UniProt Q9NYJ7 27-492, limits assumed)
# T1 construct: also called immobilized human DLL3; recombinant human DLL3
# T1 sequence (looked up): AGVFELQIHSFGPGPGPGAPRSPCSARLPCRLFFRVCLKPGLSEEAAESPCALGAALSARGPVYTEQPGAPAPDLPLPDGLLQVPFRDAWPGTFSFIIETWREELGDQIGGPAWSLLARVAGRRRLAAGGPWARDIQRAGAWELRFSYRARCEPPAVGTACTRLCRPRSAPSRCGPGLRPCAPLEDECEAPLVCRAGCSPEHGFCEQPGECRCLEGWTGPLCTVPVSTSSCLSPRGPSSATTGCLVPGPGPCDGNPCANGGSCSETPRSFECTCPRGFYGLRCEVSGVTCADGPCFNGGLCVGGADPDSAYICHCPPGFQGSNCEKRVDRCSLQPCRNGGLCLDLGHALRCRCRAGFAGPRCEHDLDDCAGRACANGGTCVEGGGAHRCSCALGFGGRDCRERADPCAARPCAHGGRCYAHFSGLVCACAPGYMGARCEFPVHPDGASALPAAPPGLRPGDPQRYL
# Target: T1, human DLL3 antigen
# Test: ELISA or flow cytometry screen
row,Binder,binding result
1,"SC16.147 (antibody, V domains shown, murine mAb) VH: QIQLVQSGPELTKPGETVKISCKASGYTFTDYSLHWVKQALGKGLKWMGWINTETGEPAYADDFKGRFAFSLETSASTAYLQINDLKNEDTTTYFCGIYDGYAMDYWGQGTSVTVSS VL: DIQMTQTASSLSASLGDRVTISCRASQDINNYLNWYQQKPDGTVKLLIYYTSRLHSGVPSRFSGSGSGTDYSLTISILEQEDIATYFCQQGDTLPWTFGGGTKLEIK",binds
2,"SC16.141 (antibody, V domains shown, murine mAb) VH: QVQLKQSGPGLVAPSQSLFITCTVSGFSLTSYEINWVRQPPGKGLEWLGVIWTGGSTNYNSALISRLSISKDNSKSLVFLKMNSLQTDDTAIYYCVRGVYAMDYWGQGTSVTVSS VL: DIKMTQSPSSMYASLGERVTITCKASQDINSYLSWFQQKPGKSPKTLIYRANRLVDGVPSRFSGSGSGQDYSLTISSLEYEDMGIYYCLQYDEFPFTFGSGTKLEIK",binds
3,"SC16.137 (antibody, V domains shown, murine mAb) VH: EVQLVESGGDLVKPGGSLKLSCAASGFTFSSYGMSWVRQTPDKRLEWVATISSGGSYTYYPDSVKGRFTISRDNAKNTLYLQMSSLKSEDTAMYYCARRRADAMDYWGQGTSVTVSS VL: QIVLTQSPAIMSASLGEEITLTCSASSSVSYMHWYQQKSGTSPKLLIYSTSNLASGVPSRFSGSGSGTFYSLTISSVEAEDAADYYCHQWSSYHTFGGGTKLEIKR",binds
4,"SC16.143 (antibody, V domains shown, murine mAb) VH: QVQLQQSGPELVKPGASVRISCKASGYTFTSYYIHWVKQRPGQGLEWIGWIYPGNGNTKYNEKFKGKATLTADKSSSTAYMQISSLTSEDSAVYFCARERWLLLWFAYWGQGTLVTVSA VL: DVLMTQTPLSLPVSLGDQASISCRSSQSIVHSNGNTYLEWYLQKPGQSPKLLIYKVSNRFSGVPDRFSGSGSGTDFTLKISRVEAEDLGVYYCFQGSHVPLTFGAGTKLELK",binds
5,"SC16.144 (antibody, V domains shown, murine mAb) VH: QIQLVQSGPELKKPGETVKISCKASGYTFTNYGMNWVKQAPGKGLKWVGWINTYTGEPTYADDFKGRFAFSLETSASTAYLQIDNLKNEDTATYFCARVGDYVGFDYWGQGTTLTVSS VL: SIVMTQTPKFLLVSAGDRVTITCKASQSVSNDVGWYQQKPGQSPKLLIYYASNRYNGVPDRFTGSGYGTDFTFTISTVQAEDLAVYFCQQDYSSPWTFGGGTKLEIK",binds
6,"SC16.142 (antibody, V domains shown, murine mAb) VH: EVQLQQSGPELVKPGASVKISCKASGYTFTDYNMHWVKQSHGKSLEWIGFFYPYNGNTVYSQKFKSKATLTVDNSSSTAYMELRSLTSEDSAVYYCARLNWEGYWGQGTTLTVSS VL: DIKMTQSPSSMYASLGERVTITCKASQDINNYLSWFQQKPGKSPKTLIYRANRLVDGVPSRFSGSGSGQDYSLTISSLEYEDMGIYYCLQYDEFPYTFGGGTKLEIKR",binds
7,"SC16.136 (antibody, V domains shown, murine mAb) VH: EFQLQQSGPELVKPGASVKMSCKASGYTFTSYVMHWVKQKPGQGLEWIGYINPYNDGTKYNEKFKGKATLTSDKSSSTAYMELSSLTSEDSAVYYCARDRSGYEDYYGMDYWGQGTSVTVSS VL: DIQMTQSPASLSASVGETVTITCRASGNIHNYLAWYQQKQGKSPHLLVYNAKTLADGVPSRFSGSGSGTQYSLKINSLQPEDFGSYYCQHFWSTPWTFGGGTKLEIK",binds
8,"SC16.148 (antibody, V domains shown, murine mAb) VH: QIQLVQSGPELKKPGETVKISCKASGYTLTNYGMNWVKQAPGKGLKWMGWINTYTGEPTYADDFKGRFAFSLETSARIVYLQINNLKNEDTATYFCAKYEAHEGFVYWGQGTLVTVSA VL: QIVLTQSPAIMSASPGEKVTMTCSASSSVSYMYWYQQKPGSSPRLLIYDTSNLASGVPVRFSGSGSGTSYSLTISRMEAEDTATYYCQEWSNNPLTFGDGTKLELK",binds
9,"SC16.13 (antibody, V domains shown, murine mAb) VH: QVTLKESGPGILQPSQTLSLTCSFSGFSLSTSGMGVGWIRQPSGKGLEWLAHIWWDDVKRYNPALKSRLTISKDTSSSQVFLKIASVDTADTATYYCARIVSFDNDVVSAMDYWGQGTSVTVSS VL: QIVLTQSPALVSASPGEKVTMTCSASSSVSYMYWYQQKPRSSPKPWIYLTSNLASGVPARFSGSGSGTSYSLTISSMEAEDAATYYCQQWRSNPFTFGSGTKLEIK",binds

# The next lines start with the values.
row,binding result,Binder
1,binds,"SC16.135 (antibody, V domains shown, murine mAb) VH: QVQLQQSGAELVRPGTSVKVSCKASGYAFTNYLIEWVKQRPGQGLEWIGVINPGSGGTNSNEKFKAKATLTADKSSSTAYMQLSSLTSADSAVYFCARSDYDYAFYAMDYWGQGTSVTVSS VL: DIKMTQSPSSMYASLGERVTITCKASQDINRYLSWFQQKPGKSPKTLIYRANRLVDGVPSRFSGSGSGQDYSLTISSLEYEDMGIYYCLQYDEFPFTFGSGTKLEIK"
2,binds,"SC16.140 (antibody, V domains shown, murine mAb) VH: QVQLQQSGPELVRPGASVKMSCKASGYTFTSYWMHWVKQRPGQGLEWIGMIDPSNSETRLNQKFKDKATLNVDKSSNTAYMQLSSLTSEDSAVYYCAVMDYYFDYWGQGTTLTVSS VL: DIVLTQSLASLAVSLGQRATISCRASKSVSTSGYSYMHWYQQKPGQPPKLLIYLASNLESGVPARFSGSGSGTDFTLNIHPVEDEDAATYYCQHSRELPFTFGGGTKLEIKR"
3,binds,"SC16.133 (antibody, V domains shown, murine mAb) VH: QVQLKESGPGLVAPSQSLSITCTVSGFSLTNYAVHWVRQSPGKGLEWLGVIWSDGSTDYNAAFISRLSISKDNSKSQVFFKMNSLQADDTAMYYCARKKGGWFPWFAYWGQGTLVTVSA VL: SIVMTQTPKFLLVSAGDRVTITCKASQSVSNDVAWYQQKPGQSPKLLIYCASNRYTGVPDRFTGSGYGTDFTFTISTVQAEDLAVYFCQQDYSSPLTFGAGTKLELK"

# Target: T1, human DLL3 antigen
# Test: SPR, Biacore 2000, 25 and 12.5 nM human DLL3 antigen, 1:1 Langmuir model
# Experimental: (§1) In this respect the humanized constructs (CDR grafted) were compared with “traditional” chimeric antibodies comprising the murine parent (or donor) heavy and light chain variable domains and a human constant region substantially equivalent to that used in the humanized constructs. With these constructs surface plasmon resonance (SPR) was conducted using a Biacore 2000 (GE Healthcare) to identify any subtle changes in rate constants brought about by the humanization process.
row,Kd,Binder
1,~0.2 nM,"SC16.15 (antibody, V domains shown, murine mAb) VH: QVQLQQSGAELAKPGASVKMSCKASGYTFTRYWIHWIKQRPGQGLEWIGYINPTTVYTEFNQNFKDKATLTADKSSTTASMQLSSLTSEDSAVYYCARGGSNFFDYWGQGTTLTVSS VL: DIQMTQSPASLAASVGETVAITCRASENIYYNLAWYQQKQGKSPQLLIYTANSLEDGVPSRFSGSGSGTQYSLKINSMQPEDSATYFCKQAYDVPPTFGGGTKLEIK"

# Target: T1, human DLL3 antigen
# Test: SPR, Biacore 2000, human DLL3 antigen
# Experimental: Various methods were used to analyze the binding and immunochemical characteristics of selected DLL3 modulators generated as set forth above. […] Affinities and kinetic constants kₒₙ and koff of the selected modulators were measured using bio-layer interferometry analysis on a ForteBio RED (ForteBio, Inc.) or surface plasmon resonance using a Biacore 2000 each according to the manufacturer's instructions.
# as §1
row,Binder,binding result
1,"hSC16.34 (antibody, V domains shown, humanized (CDR grafted)) VH: QVQLVQSGAEVKKPGASVKVSCKASGYTFTNYGMNWVRQAPGQRLEWMGWINTYTGDPTYADDFKGRVTITRDTSASTAYMELSSLRSEDTAVYYCARIGGNSPSDYWGQGTTVTVSS VL: DIQMTQSPSSLSASVGDRVTITCKASQSVSNDVAWYQQKPGKVPKLLIYYASNRYSGVPSRFSGSGSGTDFTLTISSLQPEDVATYFCQQDYSSPWTFGGGTKVEIK",binds
2,"hSC16.15 (antibody, V domains shown, humanized (CDR grafted); also called humanized SC16.15) VH: QVQLVQSGAEVKKPGASVKVSCKASGYTFTRYWIHWIRQAPGQGLEWMGYINPTTVYTEFNQNFKDRVTMTRDTSTSTVYMELSSLRSEDTAVYYCARGGSNFFDYWGQGTTVTVSS VL: AIQLTQSPSSLSASVGDRVTITCRASENIYYNLAWYQQKPGKAPKLLIYTANSLEDGVPSRFSGSGSGTDFTLTISSLQPEDFATYFCKQAYDVPPTFGGGTKLEIK",binds

# More lines, now with the values ahead:
row,binding result,Binder
1,binds,"hSC16.13 (antibody, V domains shown, humanized (CDR grafted)) VH: QITLKESGPTLVKPTQTLTLTCTFSGFSLSTSGMGVGWIRQPPGKALEWLAHIWWDDVKRYSPSLKSRLTITKDTSKNQVVLTMTNMDPVDTATYYCARIVSFDNDVVSAMDYWGQGTLVTVSS VL: DIQMTQSPSSLSASVGDRVTITCSASSSVSYMYWYQQKPGKAPKLLIYLTSNLASGVPSRFSGSGSGTDFTLTISSLQPEDFATYYCQQWRSNPFTFGQGTKLEIKR"
2,binds,"hSC16.56 (antibody, V domains shown, humanized (CDR grafted)) VH: QVQLVQSGAEVKKPGASVKVSCKASGYTFTNYGMNWVRQAPGQGLEWMGWINTYTGEPTYADDFKGRVTMTTDTSTSTAYMELRSLRSDDTAVYYCARIGDSSPSDYWGQGTLVTVSS VL: EIVMTQSPATLSVSPGERATLSCKASQSVSNDVVWYQQKPGQAPRLLIYYASNRYTGIPARFSGSGSGTEFTLTISSLQSEDFAVYYCQQDYTSPWTFGQGTKLEIKR"
